Biological target: recombinant Fasciola hepatica enolase (rFhENO) (Fasciola hepatica) (UniProt Q27655)
Assay: SEC; Superdex 75 10/300 GL, 0.4 mL/min, 100 μg rFhENO injected; markers carbonic anhydrase 29 kDa, BSA 66 kDa, alcohol dehydrogenase 150 kDa; dimer to monomers

Substance: recombinant Fasciola hepatica enolase (rFhENO) (from UniProt Q27655 1-431) (enzyme)
- percent of the protein eluting in the homodimeric form: 86.5%
- stoichiometry N: 2

From article PMC11392403
